Biological target: T1, human FcϵRIα (human, UniProt P12319 26-257)
T1 construct: whole, on cells; also called huFcϵRIα
T1 sequence (looked up): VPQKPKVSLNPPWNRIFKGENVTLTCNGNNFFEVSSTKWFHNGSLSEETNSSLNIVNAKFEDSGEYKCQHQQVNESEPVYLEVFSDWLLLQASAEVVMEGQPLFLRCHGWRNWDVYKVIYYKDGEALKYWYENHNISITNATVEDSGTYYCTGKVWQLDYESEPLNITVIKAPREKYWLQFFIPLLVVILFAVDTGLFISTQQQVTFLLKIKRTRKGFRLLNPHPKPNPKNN
Assay: summary of Examples 1-7 (huFcϵRIα mice, peritoneal mast cells, flow cytometry)

B1: IB10 (antibody, V domains shown)
VH: QVQLQQPGAELVRPGASVKLSCKASGYSFTSYWMNWVNQRPGQGLEWIGMIHPSDSETRLNPNFKDRATLTVDKSSSTAYMQLSSPTSEDSAVYYCARGSLYDGYLFLYWGQGTLVTVSA
VL: DIVMTQSPLSLPVSLGDQASISCRSSQSILHSNGDTYLEWYLQKPGQSPKLLIYKVSNRFSGVPDRFSGSGSGTDFTLKISRVEAEDLGVYYCFQGSYVPFTFGSGTKLEIKR
notes: mAb from a hybridoma (ATCC PTA-125116); also called anti-FcϵRIα monoclonal antibody IB10; anti-huFcϵRIα mAb
  binding result: binds

B2: IE7 (antibody, mouse IgG1, V domains shown)
VH: QVQLQESGGDVVKPGGSLKLSCAASGFTFSFYGMSWVRQTPDKKLEWVATISGGGNYTYYPDSVKGRFTISRDNAMNTLYLQMNSLKSEDTAMYYCVRAYYGNWNSYWGQGTLVTVS
VL: DIVMTQTPSSMYASLGERVTITCKASQDINNYLSWFQQKPGRSPKTLIYRANRLMDGVPSRIRGSGSGQDYSLTISSLEYEDMGIYYCLLYNEFPWMFGGGTKLEIKR
notes: Mouse IgG1 mAb from a hybridoma (ATCC PTA-125115); also called anti-FcϵRIα monoclonal antibody IE7; anti-huFcϵRIα mAb
  binding result: binds
